One test has as its target T1, rabbit α4β7 integrin (rabbit).
T1 construct: whole, on cells; On rabbit PBMCs
Nature of the test: FACS, rabbit CD4+ T cells.

The target in test [1] is T2, cynomolgus α4β7 integrin (cynomolgus monkey).
T2 construct: whole, on cells; On CHOK1-cα4β7 cells or cynomolgus blood lymphocytes; also called cα4β7; cyno α4β7
As to the kind of experiment: FACS, cyno total CD8+ T cells. Background: Flow cytometry measures light scatter and fluorescence of single cells or particles in a stream.

For test [2], the target named is T2, cynomolgus α4β7 integrin. Nature of the test: FACS, cyno total CD4+ T cells.
The target in test [3] is T2, cynomolgus α4β7 integrin. Nature of the test: FACS, cyno CD4+ memory T cells.
In another test the target is T3, human α4β1 integrin (human, UniProt P05556 21-798).
T3 construct: whole, on cells; also called hα4β1
Nature of the test: FACS on recombinant cells expressing human α4β1; N=1.

For test [4], the target named is T2, cynomolgus α4β7 integrin. As to the kind of experiment: FACS, cynomolgus lymphocytes.
Test [5] concerns the target T2, cynomolgus α4β7 integrin. Nature of the test: FACS, cyno CD4+ naïve.
For test [6], the target named is T2, cynomolgus α4β7 integrin. As to the kind of experiment: FACS, cyno CD8+ total.
The target of test [7] is T2, cynomolgus α4β7 integrin. Nature of the test: FACS, cyno CD8+ naïve.
The target of a further test is T4, human FcRn ECD protein (human, UniProt P55899 24-297; P61769 21-119).
T4 construct: extracellular domain
T4 sequence (P55899 24-297 limits assumed, chain 1 of 2): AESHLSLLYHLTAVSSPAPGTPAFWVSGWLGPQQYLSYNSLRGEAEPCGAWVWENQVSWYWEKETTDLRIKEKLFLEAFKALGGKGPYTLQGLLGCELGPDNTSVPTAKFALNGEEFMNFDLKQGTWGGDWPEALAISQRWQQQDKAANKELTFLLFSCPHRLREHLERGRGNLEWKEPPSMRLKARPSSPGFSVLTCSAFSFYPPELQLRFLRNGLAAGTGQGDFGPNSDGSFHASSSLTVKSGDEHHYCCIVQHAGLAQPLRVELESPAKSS
T4 sequence (P61769 21-119 limits assumed, chain 2 of 2): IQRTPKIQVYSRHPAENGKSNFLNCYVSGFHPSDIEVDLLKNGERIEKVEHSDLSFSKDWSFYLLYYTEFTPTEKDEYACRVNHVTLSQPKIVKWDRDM
As to the kind of experiment: SPR (Biacore), antibody immobilised, FcRn injected, pH 6.0, steady state; pH 6.0.

Test [8] concerns the target T5, cynomolgus FcRn ECD protein (cynomolgus monkey, UniProt Q8SPV9 24-297; Q8SPW0 21-119).
T5 construct: extracellular domain
The test is described as above.

Test [9] deals with T2, cynomolgus α4β7 integrin. As to the kind of experiment: FACS, cynomolgus CD4+ T cells.
Test [10] concerns the target T6, human FcγRI extracellular domain protein (human, UniProt P12314 16-292).
T6 construct: extracellular domain; also called hFcγRI
As to the kind of experiment: SPR (Biacore T200), His-tagged FcγR captured by anti-His, antibody injected. (SPR reads the build-up and loss of mass on a sensor chip optically.)

For test [11], the target named is T7, human FcγRIIa (H131) extracellular domain protein (human, UniProt P12318 34-217).
T7 construct: extracellular domain; also called hFcγRIIa (H131); FcγRIIa 131H
T7 sequence (looked up): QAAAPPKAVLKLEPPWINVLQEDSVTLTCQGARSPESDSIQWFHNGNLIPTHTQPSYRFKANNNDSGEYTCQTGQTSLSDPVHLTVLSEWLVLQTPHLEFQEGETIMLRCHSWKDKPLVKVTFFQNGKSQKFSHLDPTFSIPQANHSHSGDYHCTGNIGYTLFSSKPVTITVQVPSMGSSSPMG
The test is described as above.

The target in test [12] is T8, human FcγRIIIa (V158) extracellular domain protein (human, UniProt P08637 17-208).
T8 construct: extracellular domain; also called hFcγRIIIa (V158); FcγRIIIa158V
T8 sequence (P08637 17-208 F176V limits assumed): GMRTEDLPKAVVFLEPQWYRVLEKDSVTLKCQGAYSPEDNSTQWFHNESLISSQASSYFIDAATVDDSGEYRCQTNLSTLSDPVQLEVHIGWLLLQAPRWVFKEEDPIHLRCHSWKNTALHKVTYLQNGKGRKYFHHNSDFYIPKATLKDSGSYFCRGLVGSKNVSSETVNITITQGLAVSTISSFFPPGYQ
Described as above.

Test [13] has as its target T9, human FcγRIIIa (F158) extracellular domain protein (human, UniProt P08637 17-208).
T9 construct: extracellular domain; also called hFcγRIIIa (F158); FcγRIIIa158F
The description is as above.

Test [14] addresses T2, cynomolgus α4β7 integrin. As to the kind of experiment: binding, cynomolgus CD4+ memory T cells, summary table.
The target of a further test is T10, FcgRIIA R131 (human, UniProt P12318).
T10 construct: cell surface, on engineered CHO-K1 cells; the list of molecules has only an FcγRIIa on CHO-K1 cells without the variant; also called human FcγRIIa (R131) on CHO-K1 cells
T10 sequence (receptor chain, looked up): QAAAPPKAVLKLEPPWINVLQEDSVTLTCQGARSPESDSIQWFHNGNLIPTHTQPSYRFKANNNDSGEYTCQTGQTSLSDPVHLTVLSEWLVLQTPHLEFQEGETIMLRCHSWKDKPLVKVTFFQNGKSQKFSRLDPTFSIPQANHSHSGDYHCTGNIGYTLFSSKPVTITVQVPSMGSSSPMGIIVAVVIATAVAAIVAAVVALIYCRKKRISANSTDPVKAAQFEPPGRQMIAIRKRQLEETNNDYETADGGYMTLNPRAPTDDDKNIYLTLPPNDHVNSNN
As to the kind of experiment: flow cytometry on CHO-K1 cells expressing the receptor (curve FcgRIIA R131), monomeric antibody, F(ab')2 anti-human IgG AF647; N=1.

Test [15] deals with T2, cynomolgus α4β7 integrin. Nature of the test: FACS, cyno CD4+ memory.
In test [16] the target is T2, cynomolgus α4β7 integrin. Nature of the test: FACS, cyno CD4+ naïve. This is another data set of the same source.
Test [17] has as its target T11, human FcγRI on CHO-K1 cells (human, UniProt P12314 16-374).
T11 construct: whole, on cells
As to the kind of experiment: flow cytometry on CHO-K1 cells expressing the receptor (curve FcgRI), monomeric antibody, F(ab')2 anti-human IgG AF647; N=1.

Test [18] concerns the target T2, cynomolgus α4β7 integrin. As to the kind of experiment: FACS, cyno CD8+ total. This is another data set of the same source.
Test [19] addresses T2, cynomolgus α4β7 integrin. Nature of the test: binding, cynomolgus lymphocytes, summary table.
In test [20] the target is T12, human FcγRIIc on CHO-K1 cells (human, UniProt P31995 43-323).
T12 construct: whole, on cells
T12 sequence (looked up): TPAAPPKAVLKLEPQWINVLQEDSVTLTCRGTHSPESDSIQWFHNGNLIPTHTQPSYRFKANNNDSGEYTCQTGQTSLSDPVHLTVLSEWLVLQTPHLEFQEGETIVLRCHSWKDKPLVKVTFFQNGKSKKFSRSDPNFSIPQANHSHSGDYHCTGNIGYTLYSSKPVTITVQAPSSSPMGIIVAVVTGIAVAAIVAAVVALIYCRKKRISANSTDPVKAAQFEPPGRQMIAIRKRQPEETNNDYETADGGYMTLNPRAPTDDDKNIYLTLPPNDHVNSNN
As to the kind of experiment: flow cytometry on CHO-K1 cells expressing the receptor (curve FcgRIIC), monomeric antibody, F(ab')2 anti-human IgG AF647; N=1.

From patent publication US20260062488A1 (AbbVie / Abbott, published 2026) come the findings set out here.

In general, EC50 refers to the concentration giving half of the maximal effect. Low readings indicate greater potency, high ones weaker potency. A word on the Kd: it is the equilibrium constant for the complex coming apart. Lower therefore signals a tighter complex.

T9 sequence (P08637 17-208): as the sequence (P08637 17-208 F176V limits assumed) above, with V160F counted along it
T6 sequence (P12314 16-292): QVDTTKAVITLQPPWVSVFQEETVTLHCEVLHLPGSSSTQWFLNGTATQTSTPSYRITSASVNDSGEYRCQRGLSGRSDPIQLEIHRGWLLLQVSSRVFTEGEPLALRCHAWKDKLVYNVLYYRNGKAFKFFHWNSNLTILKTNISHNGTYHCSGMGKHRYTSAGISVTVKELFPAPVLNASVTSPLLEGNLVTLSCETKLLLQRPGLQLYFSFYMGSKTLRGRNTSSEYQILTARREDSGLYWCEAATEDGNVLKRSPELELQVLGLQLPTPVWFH
T11 sequence (P12314 16-374): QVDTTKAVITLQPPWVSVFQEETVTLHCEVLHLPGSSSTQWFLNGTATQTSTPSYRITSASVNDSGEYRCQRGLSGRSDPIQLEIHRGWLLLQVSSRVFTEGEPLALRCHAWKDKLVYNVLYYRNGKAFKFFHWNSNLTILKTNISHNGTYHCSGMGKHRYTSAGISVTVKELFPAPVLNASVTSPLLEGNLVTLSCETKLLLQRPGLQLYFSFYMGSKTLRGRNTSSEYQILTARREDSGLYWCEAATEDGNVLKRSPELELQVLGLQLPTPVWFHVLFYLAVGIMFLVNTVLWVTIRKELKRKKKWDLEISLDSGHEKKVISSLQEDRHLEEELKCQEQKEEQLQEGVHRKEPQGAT
T5 sequence (Q8SPV9 24-297 limits assumed, chain 1 of 2): as the sequence (P55899 24-297 limits assumed, chain 1 of 2) above, with N39D, E44Q, G99S, S189G, S190N, L217M, S269T counted along it
T5 sequence (Q8SPW0 21-119 limits assumed, chain 2 of 2): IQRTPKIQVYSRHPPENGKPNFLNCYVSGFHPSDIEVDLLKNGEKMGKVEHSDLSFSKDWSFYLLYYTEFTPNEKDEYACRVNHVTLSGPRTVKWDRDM

B1: Ab-h1.9d-WT (antibody, human IgG1, kappa)
heavy: not shown
light: DIQMTQSPSSLSASVGDRVTITCHASQDISDNIGWLQQKPGKSFKLLIYHGTNLEDGVPSRFSGSGSGTDYTLTISSLQPEDFATYYCVQYAQFPWTFGGGTKVEIKRTVAAPSVFIFPPSDEQLKSGTASVVCLLNNFYPREAKVQWKVDNALQSGNSQESVTEQDSKDSTYSLSSTLTLSKADYEKHKVYACEVTHQGLSSPVTKSFNRGEC
notes: IgG1/kappa with D356E and L358M (EU); also called Anti-human α4β7 (AC-166667) hu IgG1/k WT mAb
For B1, the concentration for a half-maximal effect (EC50) with rabbit α4β7 integrin is 0.097 nM; in the test with cynomolgus α4β7 integrin [1] it was 0.035 nM; in the test with cynomolgus α4β7 integrin [2], 0.03 nM; with cynomolgus α4β7 integrin [3] it was 0.01 nM; with cynomolgus α4β7 integrin [4] it was 0.062 nM; with cynomolgus α4β7 integrin [5], 0.045 nM. Moreover, the EC50 with cynomolgus α4β7 integrin [6] amounted to 0.035 nM; with cynomolgus α4β7 integrin [7], 0.042 nM; with cynomolgus α4β7 integrin [9], 0.03 nM; in the test with cynomolgus α4β7 integrin [14], 0.01 nM; in the test with cynomolgus α4β7 integrin [15], 0.01 nM; with cynomolgus α4β7 integrin [16] it was 0.045 nM. Further, the EC50 with cynomolgus α4β7 integrin [18] was determined as 0.035 nM; in the test with cynomolgus α4β7 integrin [19], 0.062 nM. In addition, the binding result with human α4β1 integrin is on record as “no binding (tested: about 70 (axis without unit))”; with FcgRIIA R131, “binds”; in test [17], “binds”; in [20] it was “binds”. The Kd in the test with human FcRn ECD protein was 3300 nM; in test [8], 2200 nM; in [10], 16 nM; in test [11], 5600 nM; in test [12], 480 nM; in [13] it was 4600 nM.
